Results reported in patent US12365732 (23ANDME, dated 2025).

B1: mAb1.v7.NGS10 IgG (antibody, V domains shown)
VH: EVQLVQSGAEVKKPGASVKVSCKASGFTFTNNFMHWVRQAPGQGLEWIGFIHANSGITNINEKFKNRVTMTTDTSTSTAYMELRSLRSEDTAVYYCRSDGIYEGYFDYWGQGTLVTVSS
VL: DIQLTQSPSSLSASVGDRVTITCKASQNVGTAIVWYQQKPGKAPKVLIYSASTRYTGVPSRFSGSGSGTDFTLTISSLQPEDFATYYCQQYSSSPLTFGQGTKVEIKG
notes: human IgG1 N297G
B2: mAb1.v7.NGS11 IgG (antibody, V domains shown)
VH: EVQLVQSGAEVKKPGASVKVSCKASGFTFTNNFMHWVRQAPGQGLEWIGFIHANSGITNINEKFKNRVTMTTDTSTSTAYMELRSLRSEDTAVYYCRSDGVYEGYFDYWGQGTLVTVSS
VL: DIQLTQSPSSLSASVGDRVTITCKASQNVGTAIVWYQQKPGKAPKVLIYSASTRYTGVPSRFSGSGSGTDFTLTISSLQPEDFATYYCQQYSSSPLTFGQGTKVEIKG
notes: human IgG1 N297G
B3: h10G1 IgG (humanized 10G1) (antibody, V domains shown)
VH: EIQLVQSGSELKKPGASVKVSCKASGYPFTTYGMSWVRQAPGQGLEWMGWINTDSGVPTYADDFKGRFVFSLDTSVSTAYLQISSLKAEDTAVYFCARNIYYGWGNFDYWGQGTLVTVSS
VL: EIVMTQSPDFQSVTPKEKVTITCRASQDIYRNLHWYQQKPDQTPKLLIKHASDSISGIPSRFSGSGSGTDFTLTINSLEAEDAAAYYCLQGYSMPYTFGGGTKVEIKG
notes: human IgG1 N297G

Legend:
[1] = molecular target: T1, hu-CD96 isoform 2 on CHO cells (human, UniProt P40200 22-585); assay: FACS, CD155-Fc-FLAG 10 nM, Ab 0.8 nM
T1 construct: also called CHO-CD96 (isoform 2); CD96-CHOs
T1 sequence: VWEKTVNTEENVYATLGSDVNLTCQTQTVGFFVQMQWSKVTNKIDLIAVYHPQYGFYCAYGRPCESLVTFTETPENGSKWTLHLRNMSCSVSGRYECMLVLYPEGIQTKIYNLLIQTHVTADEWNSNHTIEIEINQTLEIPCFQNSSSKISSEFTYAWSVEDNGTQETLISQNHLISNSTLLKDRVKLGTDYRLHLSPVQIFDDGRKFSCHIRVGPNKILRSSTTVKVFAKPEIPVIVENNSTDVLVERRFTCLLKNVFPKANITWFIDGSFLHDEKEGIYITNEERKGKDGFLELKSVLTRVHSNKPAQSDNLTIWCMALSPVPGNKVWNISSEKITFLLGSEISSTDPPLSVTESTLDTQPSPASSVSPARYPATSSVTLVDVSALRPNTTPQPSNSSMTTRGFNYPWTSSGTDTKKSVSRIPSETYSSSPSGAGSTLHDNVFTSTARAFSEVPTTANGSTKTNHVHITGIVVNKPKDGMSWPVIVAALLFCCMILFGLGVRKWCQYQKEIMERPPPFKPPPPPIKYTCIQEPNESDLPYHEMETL
Description: (§1) CHO cells stably expressing isoform 2 of hu-CD96 (Origene, catalog #RC221005) were incubated with anti-CD96 antibodies for 20 minutes at 4° C. The cells were washed, and then incubated with 10 nM human CD155-Fc-FLAG for 30 minutes at 4° C. Cells were washed, and then human CD155-Fc-FLAG binding was detected by incubation with anti-FLAG-APC (Columbia Biosciences, catalog #D3-1718-1MG) for 20 minutes at 4° C. Cell binding was analyzed by flow cytometry with a CytoFLEX (Beckman Coulter). CD155 binding is represented as median fluorescence intensity (MedFI).
(§2) As shown in Table 20 (below), the anti-CD96 antibodies, mAb1.v7.NGS8, mAb1.v7.NGS9, mAb1.v7.NGS10, mAb1.v7.NGS11, and h10G1 inhibited soluble hu-CD155 binding to CD96-expressing CHO cells dose-dependently and potently. The antibody NK92.39 (Fuchs et al., 2004; Biolegend catalog #338405) inhibited receptor binding similarly.

[2] = molecular target: T1, hu-CD96 isoform 2 on CHO cells; assay: FACS, CD155-Fc-FLAG 10 nM, Ab 0.16 nM
Description: as §1, §2

[3] = molecular target: T1, hu-CD96 isoform 2 on CHO cells; assay: FACS, CD155-Fc-FLAG 10 nM, Ab 0.0064 nM
Description: as §1, §2

Binder | CD155-Fc binding (MedFI) [1] [MedFI] | CD155-Fc binding (MedFI) [2] [MedFI] | CD155-Fc binding (MedFI) [3] [MedFI]
B1 | 23600 | 54100 | 55900
B2 | 23600 | 51900 | 63600
B3 | 5870 | 21200 | 65700
